Our source for the yield during the second affinity chromatography step values is article PMC10491789.

The target in this experiment is GPI-T (wild-type human GPI transamidase complex, purified by the same strategy as GPI-T^sub) (human) (UniProt O43292). Briefly: tandem affinity co-purification; co-expressed in HEK293T-derived knockout cells; solubilised with 1% LMNG/0.1% CHS, exchanged to digitonin; Strep-Tactin beads (Strep tag on PIGU) then Ni-NTA (His tag on (pro)ULBP2); 4 °C; 150 mM NaCl, Tris-HCl pH 8.0.

Turning to “ULBP2 (His-tagged GPI-anchored product, co-expressed with wild-type GPI-T) (from UniProt Q9BZM5 27-217) (natural protein)”, the yield during the second affinity chromatography step stood at 4%.
